Here are results for three molecules from US20120316071A1 (published 2012).

Test [1] deals with T1, rHuman Notch-1/Fc Chimera, CF (R&D Systems Cat#3647-TK) (human, UniProt P46531 19-526).
T1 construct: Bought reagent
Briefly: MSD multispot ECL, antigen spotted, Fab 0.6 nM; blank spot 226.

The target in test [2] is T2, rHuman Erythropoietin R/Fc Chimera, CF (R&D Systems Cat#963-ER) (human, UniProt P19235 25-250).
T2 construct: Bought reagent; also called EPO R/Fc; Epo R
T2 sequence (looked up): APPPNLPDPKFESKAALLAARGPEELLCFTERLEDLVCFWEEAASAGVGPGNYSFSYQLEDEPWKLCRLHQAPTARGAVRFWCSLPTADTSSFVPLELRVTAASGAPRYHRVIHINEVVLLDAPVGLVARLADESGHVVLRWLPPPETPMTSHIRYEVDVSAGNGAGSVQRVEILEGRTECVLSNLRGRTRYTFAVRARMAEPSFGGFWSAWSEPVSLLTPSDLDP
The description is as above.

Test [3] addresses T3, rHuman HGF R/c-MET/Fc Chimera, CF (R&D Systems Cat#358-MT/CF) (human, UniProt P08581 25-932).
T3 construct: Bought reagent; also called HGF R/Fc; hepatocyte growth factor receptor
The description is as above.

For test [4], the target named is T4, rHuman IGF-1 sR, (IGF-1 sR), CF (R&D Systems Cat#391-GR) (human, UniProt P08069 31-932).
T4 construct: Bought soluble receptor; also called insulin-like growth factor-1 soluble receptor
The test is described as above.

Test [5] deals with T5, rHuman ErbB2/Fc Chimera, CF (R&D Systems Cat#1129-ER) (human, UniProt P04626 23-652).
T5 construct: Bought reagent; also called human epidermal growth factor 2 receptor
The test is described as above.

Test [6] concerns the target T6, rHuman P-Cadherin/Fc Chimera, CF (R&D Systems Cat#861-PC) (human, UniProt P22223 108-654).
T6 construct: Bought recombinant protein; Fc part of the bought chimera not given
Nature of the test: Multispot ECL (MSD) assay, antigen spotted on plate, Fab at 0.312 µM; blank spot 1977.

The target of test [7] is T7, rHuman Erythropoietin R/Fc Chimera, CF (R&D Systems Cat#963-ER) (human, UniProt P19235 25-250).
T7 construct: Bought recombinant protein; also called EPO R/Fc; Epo R; Fc part of the bought chimera not given
T7 sequence (looked up): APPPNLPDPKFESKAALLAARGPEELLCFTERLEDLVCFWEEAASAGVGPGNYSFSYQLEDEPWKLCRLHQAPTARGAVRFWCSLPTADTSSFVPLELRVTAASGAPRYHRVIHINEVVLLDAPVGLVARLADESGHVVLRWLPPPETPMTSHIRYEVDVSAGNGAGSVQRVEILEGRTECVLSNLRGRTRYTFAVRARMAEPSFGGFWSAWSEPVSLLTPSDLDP
Described as above.

For test [8], the target named is T8, Recombinant Human DLL4 (R&D Systems Cat#1506-D4/CF) (human, UniProt Q9NR61 27-524).
T8 construct: Bought recombinant protein; also called delta-like protein 4; rHuman DLL4
Described as above.

The target in test [9] is T9, rHuman EGF R/Fc Chimera, CF (R&D Systems Cat#344-ER) (human, UniProt P00533 25-645).
T9 construct: Bought recombinant protein; also called epidermal growth factor receptor (EGF R); Fc part of the bought chimera not given
The description is as above.

The target of test [10] is T10, rHuman ErbB2/Fc Chimera, CF (R&D Systems Cat#1129-ER) (human, UniProt P04626 23-652).
T10 construct: Bought recombinant protein; also called human epidermal growth factor 2 receptor (ErbB2); Fc part of the bought chimera not given
The description is as above.

In test [11] the target is T11, rHuman IGF-1 sR, (IGF-1 sR), CF (R&D Systems Cat#391-GR) (human, UniProt P08069 31-932).
T11 construct: Bought recombinant soluble receptor; also called insulin-like growth factor-1 soluble receptor
Described as above.

The target of test [12] is T12, rHuman Notch-1/Fc Chimera, CF (R&D Systems Cat#3647-TK) (human, UniProt P46531 19-526).
T12 construct: Bought recombinant protein; Fc part of the bought chimera not given
Described as above.

Test [13] addresses T13, rHuman CD44/Fc Chimera, CF (R&D Systems Cat#3660-CD) (human, UniProt P16070 21-220).
T13 construct: Bought recombinant protein; Fc part of the bought chimera not given
The description is as above.

The target in test [14] is T14, rHuman HGF R/c-MET/Fc Chimera, CF (R&D Systems Cat#358-MT/CF) (human, UniProt P08581 25-932).
T14 construct: Bought recombinant protein; also called HGF R/Fc; hepatocyte growth factor receptor (HGF R/c-Met); Fc part of the bought chimera not given
Described as above.

For test [15], the target named is T15, rHuman HGF R/c-MET/Fc Chimera, CF (R&D Systems Cat#358-MT/CF) (human, UniProt P08581 25-932).
T15 construct: Bought recombinant protein; also called HGF R/Fc; hepatocyte growth factor receptor; Fc part of the bought chimera not given
Briefly: MSD multispot ECL, antigen spotted on plate; Fab 0.51 uM; blank spot 1096.

Test [16] addresses T16, rHuman ErbB2/Fc Chimera, CF (R&D Systems Cat#1129-ER) (human, UniProt P04626 23-652).
T16 construct: Bought recombinant protein; also called human epidermal growth factor 2 receptor; Fc part of the bought chimera not given
Described as above.

Test [17] has as its target T17, rHuman P-Cadherin/Fc Chimera, CF (R&D Systems Cat#861-PC) (human, UniProt P22223 108-654).
T17 construct: Bought recombinant protein; Fc part of the bought chimera not given
Described as above.

The target in test [18] is T18, rHuman EGF R/Fc Chimera, CF (R&D Systems Cat#344-ER) (human, UniProt P00533 25-645).
T18 construct: Bought recombinant protein; also called epidermal growth factor receptor; Fc part of the bought chimera not given
The test is described as above.

B1: Fab VH1-46_IGHD6-6*01_IGHJ1*01 & L6_IGKJ1*01 (Fab, V domains shown)
VH: QVQLVQSGAEVKKPGASVKVSCKASGYTFTSYYMHWVRQAPGQGLEWMGIINPSGGSTSYAQKFQGRVTMTRDTSTSTVYMELSSLRSEDTAVYYCAREEYSSSSAEYFQHWGQGTLVTVSS
VL: not shown
notes: Only variable domains are tied to the molecule; Tested as a Fab made in E. coli: heavy chain from Plasmid A (CH1 constant region, His6 and Flag tags), kappa light chain from Plasmid C (kappa CL); also called parent Hit Fab against DLL4; VH1-46_IGHD6-6*01_IGHJ1*01 & L6_IGKJ1*01 (parental)
B1: the ECL signal came out at 337 ECL signal in test [1]; 337 ECL signal in test [2]; 256 ECL signal in test [3]; 313 ECL signal in test [4]; 215 ECL signal in test [5].

B2: Fab VH1-46_IGHD7-27*01_IGHJ2*01 & L6_IGKJ1*01 (Fab, V domains shown)
VH: QVQLVQSGAEVKKPGASVKVSCKASGYTFTSYYMHWVRQAPGQGLEWMGIINPSGGSTSYAQKFQGRVTMTRDTSTSTVYMELSSLRSEDTAVYYCARANWGYWYFDLWGRGTLVTVSS
VL: not shown
notes: Germline Fab made in E. coli; VH was cloned in Plasmid A (CH1 constant region, His6 and Flag tags) and the kappa VL in Plasmid C (kappa CL); Only the variable domains are tied to this Fab by name
With B2, the ECL signal in test [6] is 7100; in [7], 5020; in [8], 5480; in test [9], 4330; in test [10], 3660; in test [11], 3510. In addition, the ECL signal stood at 4460 in test [12], 4170 in test [13] and 4690 in test [14].

B3: Fab VH4-34_IGHD7-27*01_IGHJ4*01 & L5_IGKJ1*01 (Fab, V domains shown)
VH: QVQLQQWGAGLLKPSETLSLTCAVYGGSFSGYYWSWIRQPPGKGLEWIGEINHSGSTNYNPSLKSRVTISVDTSKNQFSLKLSSVTAADTAVYYCARANWGDYFDYWGQGTLVTVSS
VL: DIQMTQSPSSVSASVGDRVTITCRASQGISSWLAWYQQKPGKAPKLLIYAASSLQSGVPSRFSGSGSGTDFTLTISSLQPEDFATYYCQQANSFPPWTFGQGTKVEIKR
notes: Germline library Fab expressed in E. coli; VH was cloned into Plasmid A, which adds CH1 with His6 and Flag tags
With B3, the ECL signal in [15] amounted to 1990; in test [16], 1530; in [17], 2390; in test [18] it was 2360.
